One molecule from patent publication US20240218079A1, “PLASMA KALLIKREIN ANTIBODIES AND USES THEREOF” (Astria Therapeutics, Inc., priority 2021, published 2024) can be followed below.

For assay [1], the target named is human plasma kallikrein (human) (UniProt P03952).
The target is the same in assay [2]. The source holds these as a separate data set.

Chain of human plasma kallikrein (human) (P03952 20-390 S143N limits assumed, chain 1 of 2): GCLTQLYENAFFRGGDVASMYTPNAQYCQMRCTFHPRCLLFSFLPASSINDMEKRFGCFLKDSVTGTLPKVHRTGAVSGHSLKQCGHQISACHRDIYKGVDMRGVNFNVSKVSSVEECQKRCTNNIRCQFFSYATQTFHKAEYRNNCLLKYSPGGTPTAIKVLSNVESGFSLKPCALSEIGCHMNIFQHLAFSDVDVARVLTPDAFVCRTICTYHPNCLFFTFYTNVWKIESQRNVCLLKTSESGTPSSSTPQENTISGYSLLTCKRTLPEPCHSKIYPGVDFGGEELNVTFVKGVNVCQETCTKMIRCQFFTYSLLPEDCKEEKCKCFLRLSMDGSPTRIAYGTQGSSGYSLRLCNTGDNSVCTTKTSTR
Chain of human plasma kallikrein (human) (P03952 391-638 limits assumed, chain 2 of 2): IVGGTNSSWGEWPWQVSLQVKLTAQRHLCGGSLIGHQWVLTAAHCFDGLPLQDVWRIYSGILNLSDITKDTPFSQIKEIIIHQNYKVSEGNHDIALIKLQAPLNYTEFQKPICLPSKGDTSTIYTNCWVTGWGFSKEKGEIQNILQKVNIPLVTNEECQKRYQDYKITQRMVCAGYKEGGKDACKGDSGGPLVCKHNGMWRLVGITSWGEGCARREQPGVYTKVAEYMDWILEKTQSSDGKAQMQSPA

B1: C1inh (protein, UniProt P05155 23-500, looked up, species assumed)
Plasma protease C1 inhibitor: NPNATSSSSQDPESLQDRGEGKVATTVISKMLFVEPILEVSSLPTTNSTTNSATKITANTTDEPTTQPTTEPTTQPTIQPTQPTTQLPTDSPTQPTTGSFCPGPVTLCSDLESHSTEAVLGDALVDFSLKLYHAFSAMKKVETNMAFSPFSIASLLTQVLLGAGENTKTNLESILSYPKDFTCVHQALKGFTTKGVTSVSQIFHSPDLAIRDTFVNASRTLYSSSPRVLSNNSDANLELINTWVAKNTNNKISRLLDSLPSDTRLVLLNAIYLSAKWKTTFDPKKTRMEPFHFKNSVIKVPMMNSKKYPVAHFIDQTLKAKVGQLQLSHNLSLVILVPQNLKHRLEDMEQALSPSVFKAIMEKLEMSKFQPTLLTLPRIKVTTSQDMLSIMEKLEFFDFSYDLNLCGLTEDPDLQVSAMQHQTVLELTETGVEAAAASAISVARTLLVFEVQQPFLFVLWDQQHKFPVFMGRVYDPRA
In assay [1], B1 came in with an IC50 (read off the curve) of 3 nM. Also, in assay [2], the IC50 (read off the curve), lower panel, 10 nM pKal was determined as 1e-08 M and the IC50 (read off the curve), upper panel, 1 nM pKal amounted to 4e-09 M.
